The source of these data is patent US20230220021A1, “CYCLIC PEPTIDE INHIBITORS OF PSD-95 AND USES THEREOF” (University of Copenhagen, priority 2020, published 2023).

This assay deals with (7× His)-PSD-95-PDZ2 wild type (UniProt P78352). Description: FP competition.

[ ]: non-standard residue; d: D form.

Sequence of (7× His)-PSD-95-PDZ2 wild type (P78352 160-246): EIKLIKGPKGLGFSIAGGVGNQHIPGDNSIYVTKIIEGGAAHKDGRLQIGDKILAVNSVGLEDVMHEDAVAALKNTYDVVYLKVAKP

B1: cyclic nNOS β-hairpin peptide T116M (peptide)
peptide: cyclo(THLETTFTGDGMPKTIRVTQ[dP]GQ)
modifications: ring closure inferred; not fully specified
Consider B1, for which the Ki is 3.76 µM and the Relative Ki (Ki mut/Ki WT) came out at 2.51.
